This note sets out measurements from patent US20230287362A1 (REGENTS OF THE UNIVERSITY OF COLORADO A BODY CORPORATE, published 2023).

Ends that are not written are not given here.

Assay [1] deals with T1, E. cloacae Cap2 E1 domain, residues 374-600, C548A (Enterobacter cloacae UCI 50, UniProt P0DX82 374-600).
T1 construct: also called Cap2 E1 (of Cp2 E1-CD-NTase Apo, PDB 7TSX)
In words: X-ray crystallography of a fusion construct, 1.77 A.

Assay [2] deals with T2, E. cloacae Cap2 E1 domain, residues 363-600, C548A (Enterobacter cloacae UCI 50, UniProt P0DX82 363-600).
T2 construct: also called Cap2 E1 (of Cap2 E1-CD-NTase: AMP, PDB 7TSQ)
In words: X-ray crystallography of a fusion construct, 2.11 A.

Assay [3] has as its target T3, E. cloacae Cap2 C109A/C548A (catalytically dead) (Enterobacter cloacae UCI 50, UniProt P0DX82 1-600).
T3 construct: also called C.D. Cap2; Cap2(C548A/C109A)
As to the kind of experiment: co-purified stoichiometric complex, cryo-EM.

B1: E. cloacae CD-NTase C terminus, residues 370-381 (peptide)
peptide: KPAEPQKTGRFA
modifications: also: C terminus conjugated to AMP in ATP-bound structure, unmodified in apo structure
Take B1: the binding result in assay [1] and in assay [2] was “binds” in each case.

B2: E. cloacae CD-NTase with an N-terminal His6-tag (enzyme)
chain: MELQPQFNEFLANIRPTDTQKEDWKSGARTLRERLKNFEPLKEIVVSTFLQGSIRRSTAIRPLGDKRPDVDIVVVTNLDHTRMSPTDAMDLFIPFLEKYYPGKWETQGRSFGITLSYVELDLVITAIPESGAEKSHLEQLYKSESVLTVNSLEEQTDWRLNKSWTPNTGWLSESNSAQVEDAPASEWKAHPLVLPDREKNEWGRTHPLAQIRWTAEKNRLCNGHYINLVRAVKWWRQQNSEDLPKYPKGYPLEHLIGNALDNGTTSMAQGLVQLMDTFLSRWAAIYNQKSKPWLSDHGVAEHDVMARLTAEDFCSFYEGIASAAEIARNALASEEPQESAQLWRQLFGSKFPLPGPQGGDRNGGFTTPSKPAEPQKTGRFA
modifications: C terminus conjugated to AMP in the cryo-EM structure
notes: also called His6-CD-NTase; ec cdnD02; not shown: N-terminal His6-TEV cleavage site tag of vector 2-BT
With B2, the binding result in assay [3] is reported as “binds”.
